Data: the supplement of paper PMC10065799, “High-throughput profiling of sequence recognition by tyrosine kinases and SH2 domains using bacterial peptide display” (eLife, 2023)

What was measured:
Jak2 = Jak2 (UniProt O60674); experiment: phosphorylation enrichment, bacterial display (enrichment ratio); higher = better substrate or ligand; peptides without Tyr show the background
FGFR3 = FGFR3 (UniProt P22607); experiment: as above
FGFR1 = FGFR1 (UniProt P11362); experiment: as above
Fes = Fes (UniProt P07332); experiment: as above
Chain of Fes (P07332 whole entry, looked up): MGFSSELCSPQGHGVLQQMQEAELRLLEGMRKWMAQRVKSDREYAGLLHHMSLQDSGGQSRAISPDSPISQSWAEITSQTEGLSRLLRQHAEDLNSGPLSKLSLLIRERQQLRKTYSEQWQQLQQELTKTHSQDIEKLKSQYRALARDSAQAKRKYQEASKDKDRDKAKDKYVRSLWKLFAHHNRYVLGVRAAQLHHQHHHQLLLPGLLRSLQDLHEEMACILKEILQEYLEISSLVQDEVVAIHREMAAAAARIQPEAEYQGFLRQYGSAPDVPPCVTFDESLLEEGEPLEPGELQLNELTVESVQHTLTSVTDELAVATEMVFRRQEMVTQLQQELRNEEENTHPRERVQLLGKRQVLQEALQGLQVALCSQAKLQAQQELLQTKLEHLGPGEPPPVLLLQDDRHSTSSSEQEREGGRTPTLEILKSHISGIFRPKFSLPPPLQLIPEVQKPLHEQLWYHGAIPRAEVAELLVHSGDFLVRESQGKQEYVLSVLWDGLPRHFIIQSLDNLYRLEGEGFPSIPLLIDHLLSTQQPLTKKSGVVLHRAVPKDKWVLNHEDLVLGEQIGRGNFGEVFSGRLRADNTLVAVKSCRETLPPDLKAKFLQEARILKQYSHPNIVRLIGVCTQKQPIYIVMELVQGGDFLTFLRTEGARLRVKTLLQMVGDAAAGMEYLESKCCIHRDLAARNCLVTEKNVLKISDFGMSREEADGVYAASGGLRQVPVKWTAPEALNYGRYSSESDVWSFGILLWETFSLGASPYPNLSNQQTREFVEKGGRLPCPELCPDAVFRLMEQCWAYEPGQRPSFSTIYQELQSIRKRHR

Fyn = Fyn (UniProt P06241); experiment: as above
Chain of Fyn (P06241 whole entry, looked up): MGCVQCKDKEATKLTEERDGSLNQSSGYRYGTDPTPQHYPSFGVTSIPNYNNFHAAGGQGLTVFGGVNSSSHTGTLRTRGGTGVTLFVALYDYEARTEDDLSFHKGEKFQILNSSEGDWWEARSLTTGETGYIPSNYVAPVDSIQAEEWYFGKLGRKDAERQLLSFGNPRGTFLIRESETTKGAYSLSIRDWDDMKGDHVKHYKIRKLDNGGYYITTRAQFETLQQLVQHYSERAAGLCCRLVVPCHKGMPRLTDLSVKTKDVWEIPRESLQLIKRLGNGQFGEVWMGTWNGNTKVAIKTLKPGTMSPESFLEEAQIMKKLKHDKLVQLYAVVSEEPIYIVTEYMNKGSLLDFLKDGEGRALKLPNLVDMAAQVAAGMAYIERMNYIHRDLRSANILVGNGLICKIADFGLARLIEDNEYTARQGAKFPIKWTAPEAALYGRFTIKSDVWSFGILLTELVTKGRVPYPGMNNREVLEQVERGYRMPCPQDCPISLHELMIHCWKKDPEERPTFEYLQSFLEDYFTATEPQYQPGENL

c-Src = experiment: as above
EPHB1 = EPHB1 (UniProt P54762); experiment: as above
Chain of EPHB1 (P54762 whole entry, looked up): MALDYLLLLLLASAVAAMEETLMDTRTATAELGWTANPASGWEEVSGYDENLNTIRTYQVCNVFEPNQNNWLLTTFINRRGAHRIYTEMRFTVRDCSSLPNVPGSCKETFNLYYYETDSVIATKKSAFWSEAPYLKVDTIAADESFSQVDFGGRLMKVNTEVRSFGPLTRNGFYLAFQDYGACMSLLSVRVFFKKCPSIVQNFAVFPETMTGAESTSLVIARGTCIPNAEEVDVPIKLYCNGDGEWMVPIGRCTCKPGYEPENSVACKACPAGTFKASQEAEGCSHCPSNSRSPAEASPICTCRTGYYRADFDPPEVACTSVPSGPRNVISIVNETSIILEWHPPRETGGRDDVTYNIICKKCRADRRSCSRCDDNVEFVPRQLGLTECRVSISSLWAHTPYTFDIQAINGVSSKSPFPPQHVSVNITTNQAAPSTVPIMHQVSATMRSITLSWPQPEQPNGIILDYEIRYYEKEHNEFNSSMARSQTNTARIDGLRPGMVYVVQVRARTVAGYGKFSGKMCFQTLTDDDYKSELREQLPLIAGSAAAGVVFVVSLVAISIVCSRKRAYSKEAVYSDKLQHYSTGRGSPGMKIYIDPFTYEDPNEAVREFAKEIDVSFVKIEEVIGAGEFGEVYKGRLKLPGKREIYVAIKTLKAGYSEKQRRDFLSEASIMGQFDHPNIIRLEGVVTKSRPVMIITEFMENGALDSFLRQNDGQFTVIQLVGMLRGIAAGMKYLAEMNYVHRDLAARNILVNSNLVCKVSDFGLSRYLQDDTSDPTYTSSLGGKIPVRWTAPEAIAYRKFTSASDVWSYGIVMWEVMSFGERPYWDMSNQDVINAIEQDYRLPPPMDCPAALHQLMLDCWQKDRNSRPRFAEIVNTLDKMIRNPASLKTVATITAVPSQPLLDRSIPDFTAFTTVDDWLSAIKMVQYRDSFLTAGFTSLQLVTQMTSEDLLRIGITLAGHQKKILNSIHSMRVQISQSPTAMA

EPHB2 = EPHB2 (UniProt P29323); experiment: as above
Fer (mouse) = experiment: as above
AncSZ = experiment: as above
c-Abl (mouse) = experiment: as above
Hck = Hck (UniProt P08631); experiment: as above
Chain of Hck (P08631 whole entry, looked up): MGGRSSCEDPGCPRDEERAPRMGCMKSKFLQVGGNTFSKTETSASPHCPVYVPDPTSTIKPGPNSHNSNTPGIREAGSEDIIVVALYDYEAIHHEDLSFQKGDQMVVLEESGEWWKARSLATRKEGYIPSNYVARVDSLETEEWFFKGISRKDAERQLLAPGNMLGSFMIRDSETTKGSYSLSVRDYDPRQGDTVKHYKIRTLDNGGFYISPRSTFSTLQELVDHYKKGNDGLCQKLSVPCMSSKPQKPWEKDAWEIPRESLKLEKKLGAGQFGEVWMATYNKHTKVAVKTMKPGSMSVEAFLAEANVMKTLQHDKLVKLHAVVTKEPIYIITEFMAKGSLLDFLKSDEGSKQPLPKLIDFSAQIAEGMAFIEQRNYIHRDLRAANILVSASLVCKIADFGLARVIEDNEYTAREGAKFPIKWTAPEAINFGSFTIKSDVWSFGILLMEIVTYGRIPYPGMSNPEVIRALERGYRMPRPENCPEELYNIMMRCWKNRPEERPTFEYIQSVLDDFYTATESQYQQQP

MERTK = MERTK (UniProt Q12866); experiment: as above
Grb2 SH2 = Grb2 SH2 (UniProt P62993); experiment: SH2 binding enrichment of the phosphorylated peptide, bacterial display (enrichment ratio); higher = better substrate or ligand; peptides without Tyr show the background
c-Src SH2 = experiment: as above
SHP2-C SH2 = experiment: as above
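Throughout, for SH2 binding enrichment of the phosphorylated peptide, bacterial display: peptide library displayed on the E. coli surface as eCPX fusions, selected cells deep-sequenced, score is each peptide's frequency after selection divided by its frequency in the input.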
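Throughout, for phosphorylation enrichment, bacterial display: 11-residue human phosphosite peptides and single-mutation variants displayed on the E. coli surface, counted by deep sequencing, each peptide's frequency after selection divided by its frequency in the unselected input library; frequency after pTyr selection over input frequency; kinase dosed for 20-30% of maximal phosphorylation in three min.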

Chain of FGFR1 (P11362 whole entry, looked up): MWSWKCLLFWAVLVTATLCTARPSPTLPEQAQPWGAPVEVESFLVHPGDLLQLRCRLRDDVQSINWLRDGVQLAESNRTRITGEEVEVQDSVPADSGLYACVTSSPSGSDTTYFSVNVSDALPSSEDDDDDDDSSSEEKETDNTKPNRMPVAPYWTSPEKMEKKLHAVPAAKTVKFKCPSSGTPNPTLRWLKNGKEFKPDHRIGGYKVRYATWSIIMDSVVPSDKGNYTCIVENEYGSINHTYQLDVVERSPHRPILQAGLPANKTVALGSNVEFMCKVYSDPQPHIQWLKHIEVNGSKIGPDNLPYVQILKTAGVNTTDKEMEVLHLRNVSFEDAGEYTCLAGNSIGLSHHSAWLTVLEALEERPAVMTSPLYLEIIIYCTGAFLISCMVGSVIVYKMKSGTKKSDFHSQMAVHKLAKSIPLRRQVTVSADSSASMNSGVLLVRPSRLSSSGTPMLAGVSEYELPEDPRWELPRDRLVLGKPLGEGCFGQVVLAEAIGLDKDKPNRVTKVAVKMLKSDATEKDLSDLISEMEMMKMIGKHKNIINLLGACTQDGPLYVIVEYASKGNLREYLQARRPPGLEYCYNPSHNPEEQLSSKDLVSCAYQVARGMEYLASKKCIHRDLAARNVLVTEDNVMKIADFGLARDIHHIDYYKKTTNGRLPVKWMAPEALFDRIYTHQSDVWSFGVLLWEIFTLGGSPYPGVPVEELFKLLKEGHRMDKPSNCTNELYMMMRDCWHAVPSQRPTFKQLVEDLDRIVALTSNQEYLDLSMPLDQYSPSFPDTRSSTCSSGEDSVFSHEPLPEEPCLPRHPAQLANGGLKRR
Chain of FGFR3 (P22607 whole entry, looked up): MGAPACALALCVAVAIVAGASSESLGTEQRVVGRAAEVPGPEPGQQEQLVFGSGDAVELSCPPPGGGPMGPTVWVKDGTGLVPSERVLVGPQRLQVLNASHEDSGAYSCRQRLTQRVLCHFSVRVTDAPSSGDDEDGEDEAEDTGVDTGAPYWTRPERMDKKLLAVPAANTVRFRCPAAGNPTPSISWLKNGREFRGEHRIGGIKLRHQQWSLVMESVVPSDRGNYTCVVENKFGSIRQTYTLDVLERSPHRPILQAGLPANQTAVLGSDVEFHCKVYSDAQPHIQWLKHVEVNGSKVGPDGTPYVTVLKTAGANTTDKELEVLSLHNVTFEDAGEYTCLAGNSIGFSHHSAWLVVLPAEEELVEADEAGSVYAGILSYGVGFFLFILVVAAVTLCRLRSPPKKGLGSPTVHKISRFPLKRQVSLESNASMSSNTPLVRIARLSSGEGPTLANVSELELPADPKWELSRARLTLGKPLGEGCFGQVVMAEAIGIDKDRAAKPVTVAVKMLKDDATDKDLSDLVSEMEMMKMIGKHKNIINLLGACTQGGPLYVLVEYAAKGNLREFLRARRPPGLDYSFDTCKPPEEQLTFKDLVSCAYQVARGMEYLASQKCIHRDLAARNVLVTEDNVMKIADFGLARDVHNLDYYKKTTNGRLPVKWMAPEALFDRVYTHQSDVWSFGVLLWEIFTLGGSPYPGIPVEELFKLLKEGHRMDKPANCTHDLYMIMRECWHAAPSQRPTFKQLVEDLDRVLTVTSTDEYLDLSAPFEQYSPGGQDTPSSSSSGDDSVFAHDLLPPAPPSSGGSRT

SH2 binding enrichment (Grb2 SH2)	SH2 binding enrichment (c-Src SH2)	SH2 binding enrichment (SHP2-C SH2)	Sequence	phosphorylation enrichment (Jak2)	phosphorylation enrichment (FGFR3)	phosphorylation enrichment (FGFR1)	phosphorylation enrichment (Fes)	phosphorylation enrichment (Fyn)	phosphorylation enrichment (c-Src)	phosphorylation enrichment (EPHB1)	phosphorylation enrichment (EPHB2)	phosphorylation enrichment (Fer (mouse))	phosphorylation enrichment (AncSZ)	phosphorylation enrichment (c-Abl (mouse))	phosphorylation enrichment (Hck)	phosphorylation enrichment (MERTK)
0.675	0.443	0.596	YPPTHYIRRVP [SLC4A11_Y820]	0.76	0.43	0.448	0.678	0.444	0.449	0.407	0.492	0.346	0.754	0.601	0.369	0.469
0.81	0.36	0.692	INNIDYFKNTT [FGFR2_Y656_K659N_YF]	0.463	0.474	0.377	0.687	0.393	0.301	0.374	0.327	0.317	0.471	0.421	0.401	0.408
0.891	0.608	0.885	SSTASYFKAPG [RFX2_Y108_E110K]	0.53	0.474	0.548	0.619	0.4	0.394	0.471	0.394	0.339	0.598	0.418	0.431	0.415
0.774	0.585	0.604	MKNDLYQTPLH [NFKB1_Y582_R578K]	0.727	0.502	0.473	0.695	1.16	1.63	0.668	1.11	2.2	1.4	5.91	4.13	1.81
0.759	2.6	82.1	PQAVTYAKVKH [LILRB4_Y360]	0.577	0.334	0.398	0.515	0.294	0.708	0.421	0.286	0.424	0.405	0.573	0.509	0.339
0.939	0.411	0.559	EDSEYYRAFEE [CASQ2_Y179_K180R]	1.37	1.26	0.937	1.6	0.765	0.754	0.823	0.724	0.518	2.96	0.915	0.675	0.497
1.15	0.455	0.564	RELGKYGLQAY [ALDH2_Y497_E496K]	0.543	0.47	0.426	0.72	0.464	0.356	0.403	0.402	0.475	0.683	0.581	0.455	0.457
0.837	0.474	0.699	SDVLSYGVTMW [ZAP70_Y525_W523L]	1.04	0.642	0.493	1.03	0.449	0.531	0.626	0.604	0.523	0.922	0.645	0.475	0.342
0.999	0.672	0.759	TSYQMYDKGLV [IARS2_Y231_F227S]	0.957	0.568	0.496	0.769	0.604	0.54	0.468	0.665	0.405	0.986	0.432	1.13	0.463
0.9	0.435	0.94	ANVIHYFPTQA [SLC25A4_Y81_R80H]	0.794	0.56	0.487	0.652	0.483	0.515	0.528	0.415	0.393	0.623	0.806	0.446	0.456
0.911	0.259	0.409	ARKRKYFKKHE [NFIX_Y40]	0.477	0.591	0.554	0.653	0.561	0.56	0.511	0.535	0.281	0.602	0.64	0.605	0.472
0.678	0.421	0.563	LSVEIHDRREF [ITGB7_Y753_Y753H_YF]	1.3	1.17	0.87	1.59	0.65	0.795	0.88	1.1	0.795	1.63	0.86	0.814	0.558
0.774	0.733	0.749	MFCASYDTKQE [F10_Y407_G406S]	0.986	0.746	0.561	1.17	0.558	0.511	0.536	0.717	0.571	1.01	0.731	0.554	0.552
3.12	0.802	1.12	RTLIRYANLGN [BEST1_Y131]	0.793	0.654	0.621	1.14	0.973	0.685	0.918	0.666	0.737	1.03	1.04	0.481	0.706
0.899	0.466	0.637	ILGRTHFVNHE [NEDD4_Y627_Y627H_YF]	0.485	0.559	0.397	0.707	0.476	0.377	0.471	0.535	0.457	0.633	0.5	0.451	0.423
0.821	5.25	0.771	DPTFGYEDFTR [SESN2_Y323]	1.03	0.699	0.481	1.28	0.461	0.694	0.525	0.577	0.445	1.08	0.733	0.595	0.545
0.858	1.54	0.937	STSYDYCRVPM [BST2_Y8]	2.55	5.34	7.46	0.892	0.711	1.13	11.7	10.3	4.37	3.77	1.11	2.22	3.24
0.75	0.544	0.808	EVVGRYSVHYA [MLH1_Y183_N187Y]	0.823	0.588	0.462	1.03	0.392	0.404	0.475	0.5	0.416	0.751	0.649	0.38	0.46

The remaining lines, values behind:

Sequence	SH2 binding enrichment (Grb2 SH2)	SH2 binding enrichment (c-Src SH2)	SH2 binding enrichment (SHP2-C SH2)	phosphorylation enrichment (Jak2)	phosphorylation enrichment (FGFR3)	phosphorylation enrichment (FGFR1)	phosphorylation enrichment (Fes)	phosphorylation enrichment (Fyn)	phosphorylation enrichment (c-Src)	phosphorylation enrichment (EPHB1)	phosphorylation enrichment (EPHB2)	phosphorylation enrichment (Fer (mouse))	phosphorylation enrichment (AncSZ)	phosphorylation enrichment (c-Abl (mouse))	phosphorylation enrichment (Hck)	phosphorylation enrichment (MERTK)
TLGPFYPSRLF [CRYAA_Y18]	1.17	0.717	1.13	0.668	0.586	0.581	0.784	0.459	0.44	0.47	0.493	0.464	0.795	0.63	0.428	0.43
SGAWSYNTSTE [SELE_Y24]	0.802	0.536	0.886	0.881	0.621	0.52	0.748	0.499	0.378	0.458	0.502	0.382	0.788	0.55	0.379	0.447
TVSTGYTQPQP [SARG_Y259_R258G]	0.633	1.53	0.68	0.508	0.629	0.523	0.64	0.442	0.479	0.378	0.374	0.513	0.675	0.511	0.47	0.371
TYEPNYGTVKQ [RAPGEF6_Y1447]	0.748	0.556	0.696	0.47	0.659	0.553	0.667	2.21	1.44	1.54	5.21	2.44	0.864	1.2	1.66	0.644
FIIFIYAMKKK [SLCO1B1_Y645_L643F_YF]	0.884	0.758	1.4	2.04	0.578	0.461	1.23	0.848	1.65	0.709	0.541	0.72	1.42	1.52	1.45	1.09
ESDGAYIQRMQ [CCDC137_Y125_H127Q]	0.731	0.468	0.708	0.985	0.54	0.385	0.772	0.423	0.456	0.474	0.496	0.417	0.687	0.599	0.446	0.43
AKFPFYEKNKK [FOXL2_Y91]	1.31	0.981	1.38	0.655	0.533	0.441	0.806	0.405	0.415	0.407	0.467	0.304	0.589	0.545	0.443	0.436
LQFRNYQQLFD [MAN2A1_Y442_K440R]	0.689	1.78	0.947	2.42	1.41	0.857	2.25	1.08	1.03	1.42	0.928	0.65	2.02	1.3	0.771	0.789
LSAPCYLNRIS [HEXA_Y421_W420C]	1.14	0.594	0.888	0.634	0.535	0.495	0.82	0.377	0.422	0.447	0.552	0.424	0.825	0.631	0.507	0.382
GISDEYHVIQH [GCDH_Y398_R402Q]	0.804	0.816	0.567	0.883	3.78	6.93	0.928	0.752	0.898	0.554	0.526	0.447	1.64	0.641	0.846	0.496
DPGVSYHTREE [PDHA1_Y301_R302H]	0.65	0.359	0.713	0.465	0.548	0.452	0.764	0.483	0.41	0.351	0.429	0.383	0.677	0.399	0.551	0.405
DNEYAYLKAII [HNF4A_Y288]	0.732	0.391	0.513	0.856	2.4	3.79	1.01	0.615	0.599	1.68	0.97	0.667	1.27	2.79	1.58	0.603
IRGNMYFENSF [EGFR_Y112_YF]	0.895	0.606	1.05	0.841	0.713	0.514	1.07	0.438	0.395	0.581	0.547	0.527	0.879	0.583	0.457	0.536
TFLRTYTDAMQ [TSPAN7_Y124]	0.761	0.846	0.864	0.726	0.548	0.438	0.813	0.396	0.413	0.51	0.488	0.379	0.791	0.552	0.506	0.37
RSSGGYEPRGR [FUS_Y239]	0.674	0.488	0.521	0.683	0.403	0.555	0.569	0.412	0.358	0.323	0.452	0.418	0.652	0.384	0.379	0.425
